# Measured values: US20210162009A1 (MEDICAL COLLEGE OF WISCONSIN, published 2021)
# B1: CXC chemokine receptor 4 (CXCR4) (receptor, UniProt P61073 1-352, looked up)
# chain: MEGISIYTSDNYTEEMGSGDYDSMKEPCFREENANFNKIFLPTIYSIIFLTGIVGNGLVILVMGYQKKLRSMTDKYRLHLSVADLLFVITLPFWAVDAVANWYFGNFLCKAVHVIYTVNLYSSVLILAFISLDRYLAIVHATNSQRPRKLLAEKVVYVGVWIPALLLTIPDFIFANVSEADDRYICDRFYPNDLWVVVFQFQHIMVGLILPGIVILSCYCIIISKLSHSKGHQKRKALKTTVILILAFFACWLPYYIGISIDSFILLEIIKQGCEFENTVHKWISITEALAFFHCCLNPILYAFLGAKFKTSAQHALTSVSRGSSLKILSKGKRGGHSSVSTESESSSFHSS
# Target: T1, wild-type CXCL12 (Homo sapiens (Human), UniProt P48061 22-89)
# T1 construct: also called CXCL12WT; WT
# T1 sequence (P48061 22-89 limits assumed): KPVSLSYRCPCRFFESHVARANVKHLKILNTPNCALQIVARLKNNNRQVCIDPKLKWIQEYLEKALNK
# Experiment: 125I-CXCL12 displacement from CXCR4
# Description: A) The affinity of CXCL12 variants for CXCR4 was determined by ¹²⁵I-CXCL12 displacement. […] C) Intracellular calcium mobilization of cells stimulated by 10 nM CXCL12 variants was measured in the presence or absence of the Gαi inhibitor, pertussis toxin (PTX). From Drury, PNAS, 2011.
binder,measurement,value
B1,Kd,25 nM
